In assay [1] the target is mLRRC33-proTGFβ1 (murine, UniProt Q8BMT4 20-651). The assay can be described thus: SPR (Biacore), Fab; affinity relative to Ref. (Surface plasmon resonance follows binding to a sensor surface in real time, without labels.)
The target in assay [2] is T1, mGARP-proTGFβ1 (mouse).
T1 construct: Murine LLC; also called murine GARP-proTGFβ1 complex
The assay is described as follows: SPR (Biacore), Fab; affinity relative to Ref.

Assay [3] deals with T2, hGARP-proTGFβ1 (human, UniProt Q14392 18-627; P01137 30-390, limits assumed).
T2 construct: LLC as m1; Same id used for the cell-surface complex in reporter assays; also called human GARP-proTGFβ1 complex; GARP-ProTGFb1
T2 sequence (Q14392 18-627 limits assumed, chain 1 of 2): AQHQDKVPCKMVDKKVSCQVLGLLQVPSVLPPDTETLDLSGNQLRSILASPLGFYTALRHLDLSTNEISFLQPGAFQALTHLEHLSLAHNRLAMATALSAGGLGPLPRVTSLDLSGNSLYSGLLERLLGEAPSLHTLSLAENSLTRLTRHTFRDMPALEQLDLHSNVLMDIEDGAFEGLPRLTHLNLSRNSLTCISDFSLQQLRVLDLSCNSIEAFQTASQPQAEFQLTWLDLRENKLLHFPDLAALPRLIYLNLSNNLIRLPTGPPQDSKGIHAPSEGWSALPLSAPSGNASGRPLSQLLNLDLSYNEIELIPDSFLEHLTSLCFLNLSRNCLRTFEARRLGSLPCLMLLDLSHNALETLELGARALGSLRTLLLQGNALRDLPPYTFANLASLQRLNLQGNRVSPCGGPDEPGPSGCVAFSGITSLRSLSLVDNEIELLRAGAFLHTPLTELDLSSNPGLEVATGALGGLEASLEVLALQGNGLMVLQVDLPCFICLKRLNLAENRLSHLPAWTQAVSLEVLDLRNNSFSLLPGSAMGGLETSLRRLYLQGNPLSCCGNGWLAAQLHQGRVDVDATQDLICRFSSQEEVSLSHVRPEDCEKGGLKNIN
T2 sequence (P01137 30-390 limits assumed, chain 2 of 2): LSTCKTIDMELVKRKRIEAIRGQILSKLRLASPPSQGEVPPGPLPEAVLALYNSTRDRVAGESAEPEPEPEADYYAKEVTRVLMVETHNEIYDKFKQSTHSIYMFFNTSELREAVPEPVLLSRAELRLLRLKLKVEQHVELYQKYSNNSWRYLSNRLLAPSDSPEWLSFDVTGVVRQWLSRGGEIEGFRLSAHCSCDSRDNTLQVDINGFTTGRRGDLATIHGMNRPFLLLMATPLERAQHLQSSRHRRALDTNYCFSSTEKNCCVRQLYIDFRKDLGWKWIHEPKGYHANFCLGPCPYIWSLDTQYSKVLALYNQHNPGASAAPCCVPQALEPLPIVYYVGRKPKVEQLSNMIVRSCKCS
The assay is described as follows: SPR (Biacore 8K), biotinylated antigen captured, Fab as analyte. As for the experimental part:
(§1) A BIACORE® system was employed to determine the monovalent binding affinity and the kinetic parameters for antigen binding of test antibodies. The binding kinetics were evaluated by surface plasmon resonance using Biacore 8K (GE Healthcare). A Biotin CAP sensor chip was used to capture the biotinylated antigens. […] Multi-cycle kinetics was employed where each analyte concentration was injected in a separate cycle and the sensor chip surface was regenerated after each cycle. All the assays were carried out in freshly prepared 1×HBS-EP+buffer (10 mM HEPES, 150 mM NaCl, 3 mM EDTA, 0.05% Tween20, pH 7.4). Data for all the analyte concentrations for each interaction were fit globally to a 1:1 binding model to obtain the kinetic parameters. The Sensorgram for 0 nM analyte concentration was used as reference.
(§2) The binding kinetics of antibody interactions with each of the antigen complexes, human LTBP1-ProTGFb1, human LTBP3-ProTGFb1, human GARP-ProTGFb1, and human LRRC33-ProTGFb1, were evaluated by surface plasmon resonance. Binding kinetics was evaluated by surface plasmon resonance using a BIACORE® 8K (GE) instrument. Biotinylated antigens were captured on a Biotin CAP chip and the Fab fragments of the antibodies were used as analytes. Sensorgrams for Fab binding at variable concentrations (0.6-10 nM) were globally fit to obtain the kinetic parameters.
(§3) Binding kinetics for the Fabs were evaluated against each of the four human antigens, LTBP1-ProTGFb1, LTBP3-ProTGFb1, GARP-ProTGFb1, and LRRC33-ProTGFb1. […] These experiments were repeated.

Assay [4] has as its target T3, hLRRC33-proTGFβ1 (human, UniProt Q86YC3 19-650; P01137 30-390, limits assumed).
T3 construct: LLC as m1; Same id used for the cell-surface complex in reporter assays; also called human LRRC33-proTGFβ1 complex; LRRC33-ProTGFb1
The description is as above. As for the experimental part:
as §1, §2, §3

Assay [5] concerns the target T4, hLTBP3-proTGFβ1 (human, UniProt Q9NS15 44-1303; P01137 30-390, limits assumed).
T4 construct: LLC as m1; Same id used for the cell-made complex in reporter assays; also called human LTBP3-proTGFβ1 complex; LTBP3-ProTGFb1
Described as above. The method, then:
as §1, §2, §3

Assay [6] deals with T5, hLTBP1-proTGFβ1 (human, UniProt Q14766 347-1721; P01137 30-390, limits assumed).
T5 construct: Large latent complex (LLC): proTGFβ1 dimer disulfide-linked to one presenting molecule; recombinant, purified, biotinylated in BLI/SPR; The same id is used for the complex made by transfected cells in the reporter assays; also called human LTBP1-proTGFβ1 complex; LTBP1-ProTGFb1
T5 sequence (Q14766 347-1721 limits assumed, chain 1 of 2): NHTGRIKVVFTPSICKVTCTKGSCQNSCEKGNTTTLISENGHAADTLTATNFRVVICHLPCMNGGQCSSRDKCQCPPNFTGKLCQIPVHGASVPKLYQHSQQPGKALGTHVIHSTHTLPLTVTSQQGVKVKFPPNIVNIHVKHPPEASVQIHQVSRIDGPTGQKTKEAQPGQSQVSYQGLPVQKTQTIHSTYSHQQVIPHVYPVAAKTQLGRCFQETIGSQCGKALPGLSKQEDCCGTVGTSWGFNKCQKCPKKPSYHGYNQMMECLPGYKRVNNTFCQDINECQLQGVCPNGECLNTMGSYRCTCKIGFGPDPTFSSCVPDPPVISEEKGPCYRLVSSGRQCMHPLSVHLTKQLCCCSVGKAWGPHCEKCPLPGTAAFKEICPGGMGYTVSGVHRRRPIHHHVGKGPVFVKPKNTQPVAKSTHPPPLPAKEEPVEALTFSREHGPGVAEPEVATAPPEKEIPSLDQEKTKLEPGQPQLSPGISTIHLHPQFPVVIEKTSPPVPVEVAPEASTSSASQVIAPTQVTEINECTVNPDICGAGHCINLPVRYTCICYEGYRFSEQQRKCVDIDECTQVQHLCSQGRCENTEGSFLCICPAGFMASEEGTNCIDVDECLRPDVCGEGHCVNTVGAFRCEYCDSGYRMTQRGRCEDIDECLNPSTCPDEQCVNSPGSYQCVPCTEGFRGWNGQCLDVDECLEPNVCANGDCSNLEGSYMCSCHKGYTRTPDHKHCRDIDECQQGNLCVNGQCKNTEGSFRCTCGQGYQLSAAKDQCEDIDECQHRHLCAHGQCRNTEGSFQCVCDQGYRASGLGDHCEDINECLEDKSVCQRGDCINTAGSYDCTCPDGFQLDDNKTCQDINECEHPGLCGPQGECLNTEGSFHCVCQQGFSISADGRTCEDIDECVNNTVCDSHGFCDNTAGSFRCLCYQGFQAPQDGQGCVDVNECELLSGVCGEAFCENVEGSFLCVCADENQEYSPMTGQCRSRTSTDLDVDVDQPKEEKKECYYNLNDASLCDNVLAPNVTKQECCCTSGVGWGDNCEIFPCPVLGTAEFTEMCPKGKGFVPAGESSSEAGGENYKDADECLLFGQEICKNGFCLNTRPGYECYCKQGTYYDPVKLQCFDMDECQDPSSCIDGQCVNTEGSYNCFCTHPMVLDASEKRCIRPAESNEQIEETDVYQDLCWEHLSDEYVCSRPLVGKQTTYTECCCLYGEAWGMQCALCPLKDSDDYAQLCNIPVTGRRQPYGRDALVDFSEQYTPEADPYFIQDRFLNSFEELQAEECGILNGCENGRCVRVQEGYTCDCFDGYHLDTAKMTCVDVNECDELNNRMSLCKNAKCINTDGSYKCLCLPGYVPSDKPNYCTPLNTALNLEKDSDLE
T5 sequence (P01137 30-390 limits assumed, chain 2 of 2): as the sequence (P01137 30-390 limits assumed, chain 2 of 2) above
The assay is described as above. The method, then: as §1, §2, §3

The results in this text go back to patent publication US20240294623A1 (SCHOLAR ROCK, published 2024).

T4 sequence (Q9NS15 44-1303 limits assumed, chain 1 of 2): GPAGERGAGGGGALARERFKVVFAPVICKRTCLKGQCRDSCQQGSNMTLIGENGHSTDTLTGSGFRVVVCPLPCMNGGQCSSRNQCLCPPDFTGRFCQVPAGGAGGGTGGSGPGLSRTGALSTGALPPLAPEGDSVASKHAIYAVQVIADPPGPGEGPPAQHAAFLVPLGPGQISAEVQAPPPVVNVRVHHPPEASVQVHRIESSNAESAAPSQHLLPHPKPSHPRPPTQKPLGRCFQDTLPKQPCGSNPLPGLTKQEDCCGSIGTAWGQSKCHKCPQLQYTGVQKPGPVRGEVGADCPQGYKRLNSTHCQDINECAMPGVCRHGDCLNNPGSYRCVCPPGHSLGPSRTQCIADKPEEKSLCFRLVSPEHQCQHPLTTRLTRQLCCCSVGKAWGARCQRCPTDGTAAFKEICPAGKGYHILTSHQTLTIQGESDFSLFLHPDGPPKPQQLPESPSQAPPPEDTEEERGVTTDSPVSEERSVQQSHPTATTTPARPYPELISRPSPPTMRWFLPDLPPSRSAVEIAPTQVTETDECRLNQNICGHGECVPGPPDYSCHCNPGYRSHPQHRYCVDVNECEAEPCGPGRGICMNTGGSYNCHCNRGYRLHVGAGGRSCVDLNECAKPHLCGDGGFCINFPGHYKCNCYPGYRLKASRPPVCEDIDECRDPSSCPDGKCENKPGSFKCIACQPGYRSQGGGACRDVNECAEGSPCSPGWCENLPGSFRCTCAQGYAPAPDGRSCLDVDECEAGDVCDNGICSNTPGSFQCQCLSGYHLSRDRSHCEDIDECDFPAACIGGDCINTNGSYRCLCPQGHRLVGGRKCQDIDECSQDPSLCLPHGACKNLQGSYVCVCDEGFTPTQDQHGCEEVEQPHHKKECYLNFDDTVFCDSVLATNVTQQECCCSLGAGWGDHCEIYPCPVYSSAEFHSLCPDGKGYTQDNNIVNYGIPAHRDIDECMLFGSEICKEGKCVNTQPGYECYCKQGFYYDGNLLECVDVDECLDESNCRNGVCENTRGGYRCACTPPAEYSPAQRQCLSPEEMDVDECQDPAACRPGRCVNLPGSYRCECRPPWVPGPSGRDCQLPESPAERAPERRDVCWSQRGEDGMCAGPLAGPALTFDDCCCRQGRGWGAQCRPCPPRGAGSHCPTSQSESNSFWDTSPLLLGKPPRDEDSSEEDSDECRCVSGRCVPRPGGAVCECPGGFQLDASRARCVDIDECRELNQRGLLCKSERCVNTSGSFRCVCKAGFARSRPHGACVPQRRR
T4 sequence (P01137 30-390 limits assumed, chain 2 of 2): as the sequence (P01137 30-390 limits assumed, chain 2 of 2) above
T3 sequence (Q86YC3 19-650 limits assumed, chain 1 of 2): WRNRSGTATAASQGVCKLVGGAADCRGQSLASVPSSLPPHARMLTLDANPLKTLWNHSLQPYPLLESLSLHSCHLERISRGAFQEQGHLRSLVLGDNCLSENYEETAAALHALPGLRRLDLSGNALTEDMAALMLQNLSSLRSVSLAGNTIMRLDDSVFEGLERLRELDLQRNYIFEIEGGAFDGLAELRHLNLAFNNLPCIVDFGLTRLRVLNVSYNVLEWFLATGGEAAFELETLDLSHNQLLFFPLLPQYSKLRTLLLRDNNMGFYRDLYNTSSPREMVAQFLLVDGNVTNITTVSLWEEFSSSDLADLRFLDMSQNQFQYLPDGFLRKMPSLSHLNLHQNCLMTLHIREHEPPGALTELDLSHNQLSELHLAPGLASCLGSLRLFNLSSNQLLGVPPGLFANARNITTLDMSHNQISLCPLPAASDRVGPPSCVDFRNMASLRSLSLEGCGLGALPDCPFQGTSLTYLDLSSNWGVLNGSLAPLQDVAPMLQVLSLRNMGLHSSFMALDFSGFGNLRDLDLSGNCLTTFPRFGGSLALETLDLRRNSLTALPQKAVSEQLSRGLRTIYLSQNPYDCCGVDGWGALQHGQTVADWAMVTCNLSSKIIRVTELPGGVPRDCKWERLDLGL
T3 sequence (P01137 30-390 limits assumed, chain 2 of 2): as the sequence (P01137 30-390 limits assumed, chain 2 of 2) above
Sequence of mLRRC33-proTGFβ1 (Q8BMT4 20-651): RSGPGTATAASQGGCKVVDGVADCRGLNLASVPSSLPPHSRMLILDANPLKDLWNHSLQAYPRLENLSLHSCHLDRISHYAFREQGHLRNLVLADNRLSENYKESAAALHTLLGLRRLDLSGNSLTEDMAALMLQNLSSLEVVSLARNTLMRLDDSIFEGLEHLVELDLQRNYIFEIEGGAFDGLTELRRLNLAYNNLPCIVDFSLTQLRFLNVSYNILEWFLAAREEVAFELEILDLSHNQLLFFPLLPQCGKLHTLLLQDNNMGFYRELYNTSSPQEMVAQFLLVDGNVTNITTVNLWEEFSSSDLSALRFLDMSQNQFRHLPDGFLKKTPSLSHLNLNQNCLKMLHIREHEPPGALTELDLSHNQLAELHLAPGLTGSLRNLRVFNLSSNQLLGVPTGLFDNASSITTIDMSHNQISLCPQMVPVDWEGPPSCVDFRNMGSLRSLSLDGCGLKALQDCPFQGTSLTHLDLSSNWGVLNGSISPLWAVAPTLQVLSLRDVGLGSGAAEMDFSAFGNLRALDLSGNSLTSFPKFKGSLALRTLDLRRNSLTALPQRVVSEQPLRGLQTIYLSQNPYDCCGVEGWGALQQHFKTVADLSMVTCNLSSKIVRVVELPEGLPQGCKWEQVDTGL

B1: Ab46 Fab (Fab, V domains shown)
VH: EVQLLESGGGLVQPGGSLRLSCAASGFTFADYAMTWVRQAPGKGLEWVSAISGSGAATYFADSVKGRFTISRDNSKNTLYLQMNSLRAEDTAVYYCARVSSGHWDYDYWGQGTLVTVSS
VL: DIQLTQSPSSLSASVGDRVTITCRASQSISSYLNWYQQKPGKAPKLLIYAASGLESGVPSRFSGSGSGTDFTLTISSLQPEDFATYYCQQTYGVPLTFGGGTKVEIK
notes: Fab fragment
Regarding B1, the Fold difference in assay [1] was 95 fold; in assay [2], 69 fold. Moreover, the Kd – broadly, the equilibrium constant for the complex coming apart – was 190 pM in assay [3], 119 pM in assay [4], 109 pM in assay [5] and 35 pM in assay [6]. The koff (as a rule, the first-order rate constant of dissociation) in assay [3] was 0.000359 s⁻¹; in assay [4], 0.000162 s⁻¹; in assay [5] it was 0.000195 s⁻¹; in assay [6], 8.52e-05 s⁻¹. In addition, the kon – broadly, a measure of how fast the partners come together – is 1.89e+06 M⁻¹ s⁻¹ in assay [3], 1.36e+06 M⁻¹ s⁻¹ in assay [4], 1.78e+06 M⁻¹ s⁻¹ in assay [5] and 2.44e+06 M⁻¹ s⁻¹ in assay [6].
